Read-outs that look alike come from different tables or passages of the source.
Target: T1, membralin-mCherry (mouse, UniProt Q8CIV2 1-574)
T1 construct: membralin (TMEM259), mouse cDNA from the IMAGE consortium, subcloned into pmCherry-N1; FRET acceptor; also called mCherry-tagged membralin; source: HEK293T, transfected, in living cells
Assay: FRET or BRET; acceptor photobleaching in HEK293T co-transfected 24 h with target-EGFP (donor) and membralin-mCherry (acceptor); 10 cells, three independent experiments

T1 sequence (Q8CIV2 whole entry): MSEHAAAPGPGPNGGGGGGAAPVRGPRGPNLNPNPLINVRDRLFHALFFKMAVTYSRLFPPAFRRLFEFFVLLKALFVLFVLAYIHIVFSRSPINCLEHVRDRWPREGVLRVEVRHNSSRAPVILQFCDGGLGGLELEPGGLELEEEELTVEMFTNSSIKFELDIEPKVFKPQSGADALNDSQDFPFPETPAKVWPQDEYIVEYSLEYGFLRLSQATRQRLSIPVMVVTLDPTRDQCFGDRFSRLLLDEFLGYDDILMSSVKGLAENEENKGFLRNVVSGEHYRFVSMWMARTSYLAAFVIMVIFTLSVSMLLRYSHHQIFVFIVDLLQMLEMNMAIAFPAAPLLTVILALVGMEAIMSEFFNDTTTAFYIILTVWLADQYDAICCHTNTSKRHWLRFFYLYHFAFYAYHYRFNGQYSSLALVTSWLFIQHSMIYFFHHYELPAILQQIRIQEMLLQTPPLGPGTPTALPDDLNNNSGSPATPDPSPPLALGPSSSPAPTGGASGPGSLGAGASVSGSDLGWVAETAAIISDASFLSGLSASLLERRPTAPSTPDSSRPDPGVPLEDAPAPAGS

## FAM8A1-EGFP (from UniProt Q9UBU6 1-413) (natural protein)
  FRET efficiency: 33.9%

B1: Ubac2-EGFP (natural protein, mouse, UniProt Q8R1K1 40-345, looked up)
chain: FFVYDLHAVKHDLQIWRLICGRIICLDLKDAFCSGLLIYNFRIFERRYGSRKFASFLLGSWVLSALFDFILVEAVQYSLGVTVASNLPSGFLAPVFALFVPFHCSIPRVQVAQILGPLSITNKTLIYILGLQLFTSGSYIWIVAMSGLISGMCYDRKVLQVHQVLRIPGRMAEFFSWALEPIFSSSEPTSEARVGMGATVDIQRQQRMEQLDRQLMLSQFAQVRRQRQQQGGMINWNRLFPPLRQRRNINYQDGPRSEQRASPPLEVSEEQVARLMEMGFSRGDALEALRASNNDLNVATNFLLQH
notes: Ubac2, mouse cDNA from the IMAGE consortium, subcloned into pEGFP-N1; FRET donor; vector pEGFP-N1; source: HEK293T, transfected, in living cells
Partners not purified
  FRET efficiency: 33.1%

B2: EMC3-EGFP (natural protein, mouse, UniProt Q99KI3 1-261, looked up)
chain: MAGPELLLDSNIRLWVVLPIVIITFFVGMIRHYVSILLQSDKKLTQEQVSDSQVLIRSRVLRENGKYIPKQSFLTRKYYFNNPEDGFFKKTKRKVVPPSPMTDPTMLTDMMKGNVTNVLPMILIGGWINMTFSGFVTTKVPFPLTLRFKPMLQQGIELLTLDASWVSSASWYFLNVFGLRSIYSLILGQDNAADQSRMMQEQMTGAAMAMPADTNKAFKTEWEALELTDHQWALDDVEEELMARDLHFEGMFKKELQTSIF
notes: EMC3, mouse cDNA from the IMAGE consortium, subcloned into pEGFP-N1; FRET donor; vector pEGFP-N1; also called EMC3-GFP; source: HEK293T, transfected, in living cells
Partners not purified
  FRET efficiency: 26.3%

B3: EMC1-EGFP (natural protein, mouse, UniProt Q8C7X2 24-997, looked up)
chain: YEDQVGKFDWRQQYVGKIKFASLEFSPGSKKLVVATEKNVIAALNSRTGEILWRHVDKGTAEGAVDAMLVHGQDAITVSNGGRLMRSWETNIGGLNWEITLDTGSFQALGLVGLQESVRYIAVLKKTTLTLHHLSSGHLKWVEHLPESDSILYQMVYSYGSGVVWALGIVPFSHVNIVKFNVEDGEIVQQVRVWTPWLQHLTGACGVVDEAVLVCPDPSSHSLHTLALETEWELRQIPLQSPDLEFGSGFQPQVLPTQPSPVAPSRAQFFLQLSPSHYALLHYHHGAVTLLKNFPQATLVSFATTGEKTVAAVMTCRTEVQKPVSAGDGSVASFPETSGAQDSLACFNQTYTINLYLVETGRRLLDTSISFSLEQKGTRPEQLYIQVFLKKDDSVGYRALVQTQDHLQLFLQQLAGKVVLWSREESLAEVVCLEMVDLPLTGAQAELEGEFGKKAAIQDGLLGMFLKRLSSQLILLQAWTSHLWKMFYDARKPRSQIKNEINIDTLARDEFNLQKMMVTVTASGKLFGIESSSGTILWKQYLPNVKPDSSFKLMVQRTTAHFPHPPQCTLLVKDKETGMSSLFVFNPIFGKWSQVAPPVLKRPILQSLLLPVMDQDYAKVLLLVDDEYKVTAFPATRNVLRQLHELAPSIFFYLVDAEQGRLSGYQLRKDLTTELSWELTIPPEVQRVVKVKGKRSSEHVHSQGRVMGDRSVLYKSLNPNLLAVVTESTDVHHERTFIGIFLIDGVTGRIIHSSVQKKARGPVHLVHSENWVVYQYWNSKARRNELTALELYEGTEQYNATAFSSLDRPQLPQVLQQSYIFPSSISAMEATITERGITSRHLLIGLPSGAILSLPKALLDPRRPEIPTEQSREENLIPYSPDVQVHAERFINYNQTVSRMRGIYTAPSGLESTCLVVAYGLDIYQTRVYPSKQFDVLKDDYDYVLISSVLFGLVFATMITKRLAQVKLLNRAWR
notes: EMC1, mouse cDNA from the IMAGE consortium, subcloned into pEGFP-N1; FRET donor; vector pEGFP-N1; source: HEK293T, transfected, in living cells
Partners not purified
  FRET efficiency: 22.4%

B4: SYVN1-EGFP (natural protein, mouse, UniProt Q9DBY1 1-612, looked up)
chain: MFRTAVMMAASLALTGAVVAHAYYLKHQFYPTVVYLTKSSPSMAVLYIQAFVLVFLLGKVMGKVFFGQLRAAEMEHLLERSWYAVTETCLAFTVFRDDFSPRFVALFTLLLFLKCFHWLAEDRVDFMERSPNISWLFHCRIVSLMFLLGILDFLFVSHAYHSILTRGASVQLVFGFEYAILMTMVLTIFIKYVLHSVDLQSENPWDNKAVYMLYTELFTGFIKVLLYMAFMTIMIKVHTFPLFAIRPMYLAMRQFKKAVTDAIMSRRAIRNMNTLYPDATPEELQAVDNVCIICREEMVTGAKRLPCNHIFHTSCLRSWFQRQQTCPTCRMDVLRASLPAQSPPPPEPADQGPPPAPHPQPLLPQPPNFPQGLLPPFPPGMFPLWPPMGPFPPVPPPPSSGEAAAPPPTSTAVSRPSGAATTTAAGTSTSAPAPGSVPGPEAGPAPGFPFPPPWMGMPLPPPFAFPPMPVPPAGFAGLTPEELRALEGHERQHLEARLQSLRNIHTLLDAAMLQINQYLTVLASLGPPRPATSVNPTEETASTVVSAAPSTSAPSSEAPTPSPGASPPIPEAEKPPAPESVGIVEELPEDGEPDAAELRRRRLQKLESPVAH
notes: SYVN1 (Hrd1), mouse cDNA from the IMAGE consortium, subcloned into pEGFP-N1; FRET donor; vector pEGFP-N1; also called SYVN1-GFP; source: HEK293T, transfected, in living cells
Partners not purified
  FRET efficiency: 21.8%

B5: Derlin1-EGFP (natural protein, mouse, UniProt Q99J56 1-251, looked up)
chain: MSDIGDWFRSIPAITRYWFAATVAVPLIGKLGIISPAYFFLWPEAFLYRFQIWRPFTATFYFPVGPGTGFLYLVNLYFLYQYSTRLEAGAFDGRPADYLFMLLFNWICIVITGLAMDMQLLMIPLIMSVLYVWAQLNRDLIVSFWFGTRFKACYLPWVILGFNYIIGGSVINELIGNLVGHLYFFLMFRYPMDLGGRNFLSTPQFLYRWLPSRRGGVSGFGVPPASMRRAADQNGGGGRHNWGQGFRLGDQ
notes: Derlin1, mouse cDNA from the IMAGE consortium, subcloned into pEGFP-N1; FRET donor; vector pEGFP-N1; source: HEK293T, transfected, in living cells
Partners not purified
  FRET efficiency: 12.3%

Reference: PMC5684335, “ER-associated degradation regulates Alzheimer’s amyloid pathology and memory function by modulating γ-secretase activity” (Nature Communications, 2017)
